Columns and labels:
[1] = target: intracellular antigens (TNT) in paraformaldehyde fixed Raji lymphoma cells; test: fixed-cell radioimmunoassay on Raji cells, compared with the literature value for NHS76
[2] = target: intracellular antigens (TNT) in paraformaldehyde fixed Raji lymphoma cells; test: fixed-cell radioimmunoassay: 125I-labeled fusion protein on paraformaldehyde-fixed Raji lymphoma cells, Scatchard analysis, Ka = -(slope/n) with n = 2

- affinity relative to parental NHS76 (fold of parental NHS76) [1]: 0.14
- Ka [2]: 2.15e+08 M⁻¹
Substance: B7.1/NHS76 fusion protein (from UniProt P33681 35-242)
